System: K4 kissing-loop RNA reporter
Experiment: apparent KD of K4 kissing-loop reporter; higher = weaker reporter binding
Conditions: Eterna round: R107
Protocol: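 RNA-MaP round R107: designed RNA switches with theophylline, tryptophan, arginine or FMN aptamers are transcribed on-chip within common flanks. They are titrated with a labelled K4 kissing-loop RNA reporter in RNA-MaP buffer (100 mM Tris pH 7.5, 80 mM KCl, 4 mM MgCl2), without ligand or with the indicated ligand. Median apparent KD per design.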

[1] = input ligand: theophylline 20 uM
[2] = input ligand: tryptophan 2.4 mM
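Further: bound reporter read as fluorescence of individual clusters on recovered sequencing chips by microscopy, with normalized cluster intensities fitted with a binding model.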

Row | Sequence | apparent KD of K4 kissing-loop reporter (input ligand: FMN 200 uM) [nM] | apparent KD of K4 kissing-loop reporter (input ligand: arginine 13.2 mM) [nM] | apparent KD of K4 kissing-loop reporter (input ligand: none) [nM] | apparent KD of K4 kissing-loop reporter [1] [nM] | apparent KD of K4 kissing-loop reporter [2] [nM]
1 | CGAGUGAUGUUCGUUCGUUUAUUUCGGUGACAGGAUAUGCGGAAACGCAGAAGGGUCACCUUUGAGUUACCGGAAUUAACGUUAU [Ex FMN A 29] | 564 | 453 | 623 | 558 | 455
2 | CGAGUGAUGUUCGUUUUUUAAUUUUUUUGACAGGAUAUGCGGAAACGCAGAAGGGUCACCUUUGAGUUAAAAGAAUUUAUUUUUU [Ex FMN A 17] | 321 | 236 | 295 | 298 | 199
3 | CGAUAUAAGAAUAUAUAUCUCUAUUCAGAAGGAGCGUGUUUGUACACAGGUAGGUCGCUGAAAUUUAAACUAGUGAUGUUAGACU [JR_SSArginiA_Sub002] | 1170 | 878 | 1210 | 1000 | 890
4 | CGCAGUGAUGUUGCGAGUAACUACAGGGAAGGAGCGCGGUAGUCCGCAGGUAGGUCGCCCACGCAGUGAUGUUGCGUCAUAGGGU [Exclusion Arg A GF7] | 110 | 109 | 104 | 118 | 97.3
5 | CGCAGUGAUGUUGCGAGUUCAUUCAGGGAAGGAGCGCCACAGAUGGCAGGUAGGUCGCCCACGCAGUGAUGUUGUGUAUUCGGGU [Exclusion Arginine A GF 2] | 202 | 153 | 165 | 170 | 137
6 | CGCAGUGAUGUUGCUUAUAUUCUUGGUUAACGAGGACCGGUACGGCCGCCACUCGAUUUCUAUCUAUUCCAGUGUUAAUUUGAGU [JR_ExcTryptoA_Sub005] | 364 | 429 | 419 | 568 | 271
7 | CGCAGUGAUGUUGCUUUUAUUCUUGGUUAACGAGGACCGGUACGGCCGCCACUCGAUUUCUAUCUAUUCCAGUGUUUUUUUGAGU [JR_ExcTryptoA_Sub004] | 261 | 374 | 304 | 464 | 195
8 | CGCGCCCAGCCGGAUACCAGUGACCCGCUGGGAACCGCGGGCCCAGAGUGAUGUUCGGGACACCCUUGGCAGCCGCCUGGGCGGG [#2 Same State - Theophylline B Attempt #16 (HarryS)] | 1350 | 606 | 597 | 460 | 608
9 | CGGAGUGAUGUUCCUUUUAUUAAUUAUUUACGAGGACCGGUACGGCCGCCACUCGAUUUAGCUUUUAUUUAAUGCUUGGAUGUUU [JR_SSTryptoA_Sub004] | 130 | 212 | 140 | 208 | 66.3
10 | CGGCGGAGUGAUGUUCUGCUCGCUCCGGAUACCAGCUUCGCCAGAGGCCCUUGGCAGCCGGGCGGCCCAGUGAUGUUGGGUUGCG [Same State Theophylline A GF 17] | 297 | 243 | 277 | 246 | 237
11 | CGUAGCAGAUGAAGGAGCGGCUACCUGUAUCAGGCAACUGCCUGAGUGAUGUUCAGGUAUAGCCAGGUAGGUCGCAUCUGCUACG [Arg B Ex t9b] | 240 | 206 | 214 | 211 | 212
12 | CGUUCCUCUGUCGAUACCAGCUUCAGUUGGCGGCCAGUGAUGUUGGUAUUGCCGAUGCCAAGCCCUUGGCAGCGAUAUGAGACCC [Aredi] | 572 | 403 | 597 | 265 | 439
13 | CGUUUAUAGCAGGAUACCAGUACCCAUAAAGUACGUUAAUAGUAGAGUGAUGUUCUAAAGUACCCUUGGCAGCUUCCCGUGAGUG [ExTheophylB.T] | 88.9 | 129 | 103 | 134 | 67.8
14 | CGUUUAUAGCAGGAUACCAGUACCCAUUAUGUACGUUUAUAGUAGAGUGAUGUUCUAAAGUACCCUUGGCAGCUUCCCGUGACCC [ExTheophylB.Z] | 113 | 171 | 131 | 179 | 85.4
15 | CGUUUAUAGCAGGAUACCAGUACGGAUAAAGUACGUUAAUAGUAGAGUGAUGUUCUAAAGUACCCUUGGCAGCUUAGAGUGAGUG [ExTheophylB.O] | 107 | 149 | 112 | 144 | 78.1
16 | CGUUUAUAGCAGGAUACCAGUACGGAUAAGGUACGUUAAUAGUAGAGUGAUGUUCUAAAGUACCCUUGGCAGCUUAGAGUGAGUG [#20 K4 Theophylline B Exclusion] | 90.3 | 147 | 142 | 126 | 92.2
17 | CGUUUAUAGGAGGAUACCAGUACGGAUAAAGUACGUUAAUAGUAGAGUGAUGUUCUAAAGUACCCUUGGCAGCUUAGAGUGAGUG [ExTheophylB.N] | 100 | 104 | 106 | 121 | 73.6
18 | CUCGUGGGUUUGAGAGGGCUUGUGGGAAGUAAGGAUAUUUAGGGAGGAAGAAGGUACUAUAGAAUAUAGUGAUGUUAUAUAUGGG [SSFMNA.Y] | 301 | 224 | 289 | 406 | 244
